Data on two molecules can be found in patent publication US9212226B2, “Amino acid sequences directed against CXCR4 and other GPCRs and compounds comprising the same” (Ablynx N.V., priority 2008, dated 2015).

The experiment has as its target CXCR4 (Homo sapiens, UniProt P61073). Briefly: [125I]-238D2 competition binding on membranes from HEK293T cells transiently expressing CXCR4.
Setting [1] is: membranes from HEK293T cells transiently expressing CXCR4, mean ± S.E.M.

Sequence of CXCR4 (P61073 whole entry): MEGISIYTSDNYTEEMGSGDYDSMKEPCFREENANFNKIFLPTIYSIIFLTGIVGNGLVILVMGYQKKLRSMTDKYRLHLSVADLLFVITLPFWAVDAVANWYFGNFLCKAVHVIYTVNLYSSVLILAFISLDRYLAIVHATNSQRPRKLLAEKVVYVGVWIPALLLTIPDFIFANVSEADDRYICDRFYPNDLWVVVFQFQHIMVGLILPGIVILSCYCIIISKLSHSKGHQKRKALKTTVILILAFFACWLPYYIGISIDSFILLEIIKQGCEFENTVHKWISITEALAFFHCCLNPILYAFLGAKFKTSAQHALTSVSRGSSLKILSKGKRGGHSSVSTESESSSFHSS

B1: 238D4: Nanobody (VHH) raised against human CXCR4, SEQ ID NO: 239 (protein)
VHH: EVQLMESGGGLVQAGGSLRLSCAASGRTFNNYAMGWFRRAPGKEREFVAAITRSGVRSGVSAIYGDSVKDRFTISRDNAKNTLYLQMNSLKPEDTAVYTCAASAIGSGALRRFEYDYSGQGTQVTVSS
modifications: Nanobody, Nanobody constructs or fragments thereof
In the case of B1, where the note is “[125I]-238D2 3 nM”, the “displacement of [125I]-238D2 from CXCR4” value is reported as “full displacement”. Under setting [1], the “Displacem. (%) of [125I]-238D2 (maximal displacement)” value was 101 ± 1%.

B2: 238D2: Nanobody (VHH) raised against human CXCR4, SEQ ID NO: 238 (protein)
VHH: EVQLVESGGGLVQTGGSLRLSCAASGFTFSSYAMSWVRQAPGKGLEWVSGIKSSGDSTRYAGSVKGRFTISRDNAKNMLYLQMYSLKPEDTAVYYCAKSRVSRTGLYTYDNRGQGTQVTVSS
modifications: Nanobody, Nanobody constructs or fragments thereof
Regarding B2, under setting [1], the “Displacem. (%) of [125I]-238D2 (maximal displacement)” value amounted to 97 ± 6% and the “pKi, [125I]-238D2” value is given as 8.41 ± 0.11.
